Target: T1, αENaC (Homo sapiens, UniProt P37088)
T1 sequence (P37088 1-669): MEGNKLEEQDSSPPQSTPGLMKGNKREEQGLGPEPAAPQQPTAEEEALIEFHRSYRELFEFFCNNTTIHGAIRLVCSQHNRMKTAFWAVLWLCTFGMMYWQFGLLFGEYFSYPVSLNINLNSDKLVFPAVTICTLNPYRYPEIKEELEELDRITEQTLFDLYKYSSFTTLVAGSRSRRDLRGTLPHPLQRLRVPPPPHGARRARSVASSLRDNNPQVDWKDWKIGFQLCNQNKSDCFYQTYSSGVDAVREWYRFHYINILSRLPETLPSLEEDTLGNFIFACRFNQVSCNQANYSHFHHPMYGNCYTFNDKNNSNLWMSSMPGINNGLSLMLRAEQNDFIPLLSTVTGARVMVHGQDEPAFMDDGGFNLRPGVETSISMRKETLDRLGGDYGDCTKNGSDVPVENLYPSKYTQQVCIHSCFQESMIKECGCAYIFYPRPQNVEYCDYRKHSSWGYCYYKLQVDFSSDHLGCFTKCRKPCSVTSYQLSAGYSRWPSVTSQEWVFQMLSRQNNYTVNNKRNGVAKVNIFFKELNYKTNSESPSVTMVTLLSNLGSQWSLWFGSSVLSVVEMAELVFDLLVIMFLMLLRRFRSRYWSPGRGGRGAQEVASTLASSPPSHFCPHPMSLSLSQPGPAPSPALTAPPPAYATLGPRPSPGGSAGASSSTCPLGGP
Experiment: Texas red-SPLUNC1 binding assay on JME cells expressing yfp-αENaC
Design: expressed in transfected cells; host or cells: JME nasal epithelial cells that no longer express ENaC, lentivirus pQCXIN
Details: Texas red-rSPLUNC1, 30 min, polarized JME cells with yfp-αENaC; Hill fit
Experimental: JME cells were incubated with varying concentrations of Texas red-labeled SPLUNC1 for 30 min followed by a 5× wash with PBS. After this time images were acquired with a Nikon Ti-S inverted microscope and were quantified to obtain specific and non-specific binding using Image J. Data were then fitted with a Hill Plot to obtain the Kd.
JME nasal epithelial cells express functional ENaCs (Tong et al., Am. J. Physiol. Lung Cell. Mol. Physiol. 287:L928 (2004)). However, this attribute is lost after several passages. Thus, passaged JME cells that no longer expressed ENaC were stably infected with a lentivirus containing yfp-αENaC or an empty vector as a control and the presence or absence of αENaC was confirmed using an antibody that was constructed “in-house” that was directed against αENaC (FIG. 8).
Recombinant SPLUNC1 was labeled with Texas red according to the manufacturer's instructions (Pierce) and was freshly labeled on the day of each binding experiment. […] After this time yfp (514 nm excitation) and Texas red fluorescence (590 nm excitation) were imaged under a 60× water objective on a Nikon Ti-S inverted microscope equipped with an Orca CCD camera (Hamamatsu) switchable filter wheels (Ludl). Background fluorescence was subtracted from all images and the mean thresholded intensity was quantified to obtain specific and non-specific binding using Image J.

B1: SPLUNC1: human SPLUNC1 (SEQ ID NO:1), 256 amino acid secreted PLUNC family protein; rSPLUNC1 is the purified V5/6His-tagged recombinant form (protein, listed as Homo sapiens)
chain: MFQTGGLIVFYGLLAQTMAQFGGLPVPLDQTLPLNVNPALPLSPTGLAGSLTNALSNGLLSGGLLGILENLPLLDILKPGGGTSGGLLGGLLGKVTSVIPGLNNIIDIKVTDPQLLELGLVQSPDGHRLYVTIPLGIKLQVNTPLVGASLLRLAVKLDITAEILAVRDKQERIHLVLGDCTHSPGSLQISLLDGLGPLPIQGLLDSLTGILNKVLPELVQGNVCPLVNEVLRGLDITLVHDIVNMLIHGLQFVIKV
modifications: V5/6His tag in recombinant form
notes: rSPLUNC1 is the purified V5/6His-tagged recombinant form
For B1, the Kd was 0.055 µg/mL.

Source: US9127040B2, “Regulation of sodium channels by PLUNC proteins” (The University of North Carolina at Chapel Hill, priority 2011, dated 2015)
